The target in test [1] is T1, recombinant human IL-19 (human, UniProt Q9UHD0 25-177).
T1 construct: also called human IL-19 recombinant protein; interleukin-19
T1 sequence: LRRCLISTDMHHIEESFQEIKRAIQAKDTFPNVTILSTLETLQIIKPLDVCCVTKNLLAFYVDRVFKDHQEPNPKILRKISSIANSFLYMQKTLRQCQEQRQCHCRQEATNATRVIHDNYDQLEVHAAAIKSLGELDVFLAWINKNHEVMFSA
Briefly: BLI; immobilized antibody loaded with 100 nM human IL-19, then competitor human IL-20R beta Fc-fusion added; the response is that of the receptor-Fc step. An excerpt:
Binding between a ligand immobilized on the biosensor tip surface and an analyte in solution produces an increase in optical thickness at the biosensor tip, which results in a wavelength shift (expressed in nm).
For orientation: Biolayer interferometry detects binding as a change in optical thickness at a sensor tip.

The target of test [2] is T1, recombinant human IL-19. Briefly: BLI (Octet Red96), antibody on AMQ biosensor, IL-19 in solution, 25 C, 1:1 fit. How it is done:
Except as noted, all reagents and materials are from ForteBio (Freemont, Calif.). An AMQ biosensor is used to immobilize antibody of interest for analysis.
Binding data is processed using standard double-referencing and fit to a 1:1 binding model using Data Analysis v9.0 evaluation software, to determine the association rate (kₒₙ, M⁻¹ s⁻¹ units), dissociation rate (koff, s⁻¹ units), and Rₘₐₓ (nm units). The equilibrium dissociation constant (KD) was calculated from the relationship KD=koff/kₒₙ, and is in molar units.

As usually defined, the Kd is the equilibrium constant for the complex coming apart. As a reminder, the koff is the first-order rate constant of dissociation. Usually kon stands for a measure of how fast the partners come together.

B1: rabbit derived IL-19 Ab 39 (R_39) (antibody, V domains shown)
VH: QEQLKESGGGLVQPGGSLKLSCKASGFDLSSYGVSWVRQAPGKGLEWIGYIDPVFGSTYYANWVNGRFTISSDNAQNTLYLQLNSLTAADTATYFCARGSGYVYYGYTYDLWGPGTLVTVSS
VL: DIVMTQTPASVEAAVGGTVTIKCQASQSIYRYLSWYQQKPGQRPKLLIYGASNLASGVSSRFKGSGSGTEFTLTISDLECADAATYYCQSYYYSSSSGYGNVFGGGTEVVVKG
B1: in the test with recombinant human IL-19 [1], the “IL-20R beta Fc protein binding response (nm)” value was -0.0421 nm. Moreover, in the test with recombinant human IL-19 [2], the equilibrium dissociation constant (Kd) is 170000 pM, the dissociation rate constant (koff) is 0.0348 s⁻¹ and the kon turned out to be 206000 M⁻¹ s⁻¹.

B2: rabbit derived IL-19 antibody R_4 (antibody, V domains shown)
VH: CQSVEESGGRLVTPGTPLTLTCTVSGIDLSIYAMGWVRQAPGKGLEYIGIIDTTGTAYYARWAKGRFTISKTSATVALKITSPTTEDTATYFCARDSGSLYYGSYALWGPGTLVTVSS
VL: DVVMTQTPSSVSEPVGGTVTIKCQASQSIYSYLSWYQQKPGQPPKLLIYEASKLASGVPSRFKGSGSGTQFTLTISGVECADAATYYCQQGYSSSNVDNTFGGGTEVVVT
In the case of B2, in the test with recombinant human IL-19 [2], the dissociation constant Kd came out at 8520 pM, the koff came to 0.0013 s⁻¹ and the kon worked out at 152000 M⁻¹ s⁻¹.

B3: murine derived IL-19 Ab 1 (M_1) (antibody, mouse IgG1, kappa, V domains shown)
VH: EVQLQQSGPVLVKPGASVKMSCKASGYKFTDYFVGWVKQSHGKSLEWIGYVDPENGYTRCNQKFKGKATLTVDKSSSTAYMELNSLTSEDSAVYYCARYDYDWAWFTNWGQGTLVTVSA
VL: DIVMTQSPSSLAMSVGQKVTMSCKSSQSLLSSYNQKNYLAWYQQKPGQSPKLLVYFASTRPPGVPDRFIGSGSGSDFTLTISSVQAEDLADYFCQQHERLPITFGAGTKLELKR
Consider B3, for which the “IL-20R beta Fc protein binding response (nm)” value with recombinant human IL-19 [1] was -0.0075 nm. In the test with recombinant human IL-19 [2], the Kd stood at 57.6 pM, the dissociation rate constant (koff) was found to be 6.32e-05 s⁻¹ and the kon stood at 1.1e+06 M⁻¹ s⁻¹.

B4: murine derived IL-19 Ab 5 (M_5) (antibody, mouse IgG1, kappa, V domains shown)
VH: EVQLQQSGPVLVKPGASVKMSCKASGYPFNDYFLGWVKQSHGKSLEWIGSINPDNDYTMSNQKFKGKATLTVDKSSSTAYMELNSLTSEDSAVYYCARYDYDWAWFAHWGQGTLVTVSA
VL: DIVMTQSPSSLAMSVGQKVTMSCKSSQSLLSSYNQKNYLAWYQRKPGQSPKLLVYFASQRATGVPDRFIGSGSGSDFTLTISSVQAEDLADYFCQQHTRLPITFGAGTKLELKR
As to B4, the “IL-20R beta Fc protein binding response (nm)” value in the test with recombinant human IL-19 [1] was -0.0124 nm. For the same molecule, in the test with recombinant human IL-19 [2], the dissociation constant Kd came to 52.1 pM, the dissociation rate constant (koff) was found to be 3.58e-05 s⁻¹ and the kon came to 688000 M⁻¹ s⁻¹.

B5: murine derived IL-19 Ab 2 (M_2) (antibody, mouse IgG1, kappa, V domains shown)
VH: LVQLQQSDAELVKPGASLKISCKVSGYTFTDHALHWMKQRPEQGLEWIGYIYPRDGSTKYNEKFKGKATLTADRSSSTAYMELNSLTSEDSAVYFCARGWDFAMDYWGQGTSVTVSS
VL: DIVLTQSPESLAVSLGQRATISCRASESVDNYGISFIHWYQQKPGQPPKLLIYRASNLKSGIPARFSGRGSRTDFTLTINPVETDDVATYYCQQINKDPLTFGAGTKLELKR
In the case of B5, in the test with recombinant human IL-19 [1], the “IL-20R beta Fc protein binding response (nm)” value was found to be 0.361 nm. In the test with recombinant human IL-19 [2], the equilibrium dissociation constant (Kd) came to 2900 pM, the off-rate (koff) was 0.000185 s⁻¹ and the kon stood at 63700 M⁻¹ s⁻¹.

B6: murine derived IL-19 Ab 3 (M_3) (antibody, mouse IgG1, kappa, V domains shown)
VH: QIQLVQSGPELKKPGETVKISCKASGYTFTTYGMSWVKQAPGKGLKWMVWINTYSGVPTYVDDFKGRFAFSLETSASTAYLQINNLKNEDTATYFCARRDEGFAYWGQGTLVTVSA
VL: DIKMTQSPSSMYASLGERVTITCKASQDINSYLSWFQQKPGKSPKTLIYRANRLVDGVPSRFSGSGSGQDYSLTISSLEYEDMGIYFCLQYDDFPYTFGGGTKLEIKR
For the molecule B6, in the test with recombinant human IL-19 [1], the “IL-20R beta Fc protein binding response (nm)” value came out at 0.354 nm.

B7: rabbit derived IL-19 Ab 1 (R_1) (antibody, V domains shown)
VH: QQLEESGGGLVQPEGSLTLTCTASGFSFSSSYWICWVRQAPGKGLEWLACIDTGVSGDTYYANWAEGRFTISKTSSTTVTLQMTSLTAADTATYFCARDIFGSAIDNSLWGPGTLVTVSS
VL: AIDMTQTPASVSEPVGGTVTIKCQASQSISSYLAWYQQKPGQPPKLLIYSASTLASGVPSRFRGSGSGREFTLTISDLECADAATYYCQCHYHGSSYWDNSFGGGTEVVVK
Take B7: in the test with recombinant human IL-19 [2], the Kd is 311 pM, the koff is 1.04e-05 s⁻¹ and the kon was 33300 M⁻¹ s⁻¹.

B8: rabbit derived IL-19 Ab 2 (R_2) (antibody, V domains shown)
VH: QQLEESGGGLVQPEGSLTLTCTASGFSFSSSYWICWVRQAPGKGLEWLACIDTGVSGDTYYANWAKGRFTISKTSSTTVTLQMTSLTAADTATYFCARDIFGSAIDNSLWGPGTLVTVSS
VL: DVVMTQTPASVEAAVGGTVTIKCQASESIGNALAWYQQKPGQPPKLLIYDASKLASGVPSRFKGSGSGTQFTLTISDLECADAATYYCQCHYHGSSYWDNSFGGGTEVVVK
On to B8, for which, in the test with recombinant human IL-19 [2], the Kd is 103 pM, the koff turned out to be 4.42e-05 s⁻¹ and the kon came out at 428000 M⁻¹ s⁻¹.

B9: rabbit derived IL-19 antibody R_3 (antibody, V domains shown)
VH: CQSLEESGGGLVEPEGSLTLTCKASGFSFSSSYWICWVRQAPGKGLEWIACTDTFSGDTYYASWAKGRFTISKTSSTTVTLRMTSLTDADTATYFCARDIFGTAVHISLWGPGTLVTVSS
VL: DVVMTQTPSSVEAAVGGTVTIKCQASQSIGSSLAWYQQKPGQRPKLLIYGASTLASGVPSRFKGSGSGTEFTLTISDLECADAATYYCQCHYHGSSYWDNSFGGGTEVVVK
Consider B9, for which, in the test with recombinant human IL-19 [2], the equilibrium dissociation constant (Kd) was under 1 pM, the off-rate constant (koff) was under 1e-07 s⁻¹ and the kon came out at 391000 M⁻¹ s⁻¹.

These data come from US20230220062A1 (Eli Lilly, published 2023).
